Experimental findings from article PMC7319964, “The MiDAC histone deacetylase complex is essential for embryonic development and has a unique multivalent structure” (Nature Communications, 2020) are described below.

This data set deals with the molecule itself. Nature of the data set: cryo-EM structure; complex of HDAC1, MIDEAS ELM2-SANT and DNTTIP1 lacking the DNA-binding domain; 50 µM SAHA and 50 µM InsP6, glutaraldehyde cross-linked on ice; dimer map ~4 Å (C2) and tetramer map 4.5 Å (D2) from the same grids.

B1: ELM2-SANT domain from MIDEAS (domain or fragment, UniProt Q6PJG2 717-887, looked up)
chain: VSIEPRINVGSRFQAEIPLMRDRALAAADPHKADLVWQPWEDLESSREKQRQVEDLLTAACSSIFPGAGTNQELALHCLHESRGDILETLNKLLLKKPLRPHNHPLATYHYTGSDQWKMAERKLFNKGIAIYKKDFFLVQKLIQTKTVAQCVEFYYTYKKQVKIGRNGTLT
notes: MIDEAS (ELMSAN1, c14orf43) ELM2-SANT domain; The tag is followed by a TEV protease cleavage site; TEV released the complex from the anti-FLAG resin; also called MIDEAS co-repressor protein; not shown: 10xHis, N-terminal, cleaved; 3xFLAG, N-terminal, cleaved
With B1, the binding result is “binds”.
